Measured values: the supplement of paper PMC11246515
± gives the standard deviation of the averaged measurements.

Test: total protein half-life in vivo (active degradation + dilution); higher = more stable protein
[1] = E. coli NCM3722 delta-clpP delta-lon delta-hslV, growth: N-lim chemostat, doubling time 6 h
[2] = E. coli NCM3722 delta-clpP, growth: N-lim chemostat, doubling time 6 h
[3] = E. coli NCM3722 delta-hslV, growth: N-lim chemostat, doubling time 6 h
[4] = E. coli NCM3722 delta-lon, growth: N-lim chemostat, doubling time 6 h
[5] = E. coli NCM3722 delta-smpB, growth: N-lim chemostat, doubling time 6 h
[6] = wild type E. coli NCM3722, growth: C-lim chemostat, doubling time 3 h
[7] = wild type E. coli NCM3722, growth: C-lim chemostat, doubling time 6 h
[8] = wild type E. coli NCM3722, growth: C-lim chemostat, doubling time 12 h
[9] = wild type E. coli NCM3722, growth: N-lim chemostat, doubling time 6 h
[10] = wild type E. coli NCM3722, growth: N-lim chemostat, doubling time 12 h
[11] = wild type E. coli NCM3722, growth: P-lim chemostat, doubling time 6 h
[12] = wild type E. coli NCM3722, growth: P-lim chemostat, doubling time 12 h

MNIPQLTALCLRYHGVLLDASEEVVHVAVVDAPSHELLDALHFATTKRIEITCWTRQQMEGHASRTQQTLPVAVQEKHQPKAELLTRTLQSALEQRASDIHIEPADNAYRIRLRIDGVLHPLPDVSPDAGVALTARLKVLGNLDIAEHRLPQDGQFTVELAGNAVSFRIATLPCRGGEKVVLRLLQQVGQALDVNTLGMQPLQLADFAHALQQPQGLVLVTGPTGSGKTVTLYSALQKLNTADINICSVEDPVEIPIAGLNQTQIHPRAGLTFQGVLRALLRQDPDVIMIGEIRDGETAEIAIKAAQTGHLVLSTLHTNSTCETLVRLQQMGVARWMLSSALTLVIAQRLVRKLCPHCRRQQGEPIHIPDNVWPSPLPHWQAPGCVHCYHGFYGRTALFEVLPITPVIRQLISANTDVESLETHARQAGMRTLFENGCLAVEQGLTTFEELIRVLGMPHGE
total protein half-life in vivo [1]: 3.89 h

MNIRDLEYLVALAEHRHFRRAADSCHVSQPTLSGQIRKLEDELGVMLLERTSRKVLFTQAGMLLVDQARTVLREVKVLKEMASQQGETMSGPLHIGLIPTVGPYLLPHIIPMLHQTFPKLEMYLHEAQTHQLLAQLDSGKLDCVILALVKESEAFIEVPLFDEPMLLAIYEDHPWANRECVPMADLAGEKLLMLEDGHCLRDQAMGFCFEAGADEDTHFRATSLETLRNMVAAGSGITLLPALAVPPERKRDGVVYLPCIKPEPRRTIGLVYRPGSPLRSRYEQLAEAIRARMDGHFDKVLKQAV [P0ACQ4]
total protein half-life in vivo [1]: 6.42 ± 0.14 h
total protein half-life in vivo [2]: 6.57 ± 1.4 h
total protein half-life in vivo [3]: 4.79 ± 0.37 h
total protein half-life in vivo [4]: 4.56 ± 0.12 h
total protein half-life in vivo [5]: 4.11 ± 0.24 h
total protein half-life in vivo [6]: 2.62 ± 0.37 h
total protein half-life in vivo [7]: 5.1 ± 0.76 h
total protein half-life in vivo [8]: 9.67 ± 2.1 h
total protein half-life in vivo [9]: 4.51 ± 0.26 h
total protein half-life in vivo [10]: 10.4 ± 2.9 h
total protein half-life in vivo [11]: 4.768 ± 0.012 h
total protein half-life in vivo [12]: 9.98 ± 0.13 h

MNIYRLSFVSCLVMAMPCAMAVEFNLNVLDKSMRDRIDISLLKEKGVIAPGEYFVSVAVNNNKISNGQKINWQKKGDKTIPCINDSLVDKFGLKPDIRQSLPQIDRCIDFSSRPEMLFNFDQANQQLNISIPQAWLAWHSENWAPPSTWKEGVAGVLMDYNLFASSYRPQDGSSSTNLNAYGTAGINAGAWRLRSDYQLNKTDSEDNHDQSGGISRTYLFRPLPQLGSKLTLGETDFSSNIFDGFSYTGAALASDDRMLPWELRGYAPQISGIAQTNATVTISQSGRVIYQKKVPPGPFIIDDLNQSVQGTLDVKVTEEDGRVNNFQVSAASTPFLTRQGQVRYKLAAGQPRPSMSHQTENETFFSNEVSWGMLSNTSLYGGLLISDDDYHSAAMGIGQNMLWLGALSFDVTWASSHFDTQQDERGLSYRFNYSKQVDATNSTISLAAYRFSDRHFHSYANYLDHKYNDSDAQDEKQTISLSVGQPITPLNLNLYANLLHQTWWNADASTTANITAGFNVDIGDWRDISISTSFNTTHYEDKDRDNQIYLSISLPFGNGGRVGYDMQNSSHSTIHRMSWNDTLDERNSWGMSAGLQSDRPDNGAQVSGNYQHLSSAGEWDISGTYAASDYSSVSSSWSGSFTATQYGAAFHRRSSTNEPRLMVSTDGVADIPVQGNLDYTNHFGIAVVPLISSYQPSTVAVNMNDLPDGVTVAENVIKETWIEGAIGYKSLASRSGKDVNVIIRNASGQFPPLGADIRQDDSGISVGMVGEEGHAWLSGVAENQLFTVVWGEQSCIIHLPERLEDTTKRLILPCH
total protein half-life in vivo [1]: 3.41 ± 0.16 h
total protein half-life in vivo [2]: 2.97 h
total protein half-life in vivo [7]: 4.23 h
total protein half-life in vivo [9]: 2.94 h
total protein half-life in vivo [10]: 3.79 h
total protein half-life in vivo [11]: 3.94 h
total protein half-life in vivo [12]: 11 ± 0.78 h

MNKAKRLEILTRLRENNPHPTTELNFSSPFELLIAVLLSAQATDVSVNKATAKLYPVANTPAAMLELGVEGVKTYIKTIGLYNSKAENIIKTCRILLEQHNGEVPEDRAALEALPGVGRKTANVVLNTAFGWPTIAVDTHIFRVCNRTQFAPGKNVEQVEEKLLKVVPAEFKVDCHHWLILHGRYTCIARKPRCGSCIIEDLCEYKEKVDI [P0AB83]
total protein half-life in vivo [1]: 5.59 ± 0.65 h
total protein half-life in vivo [2]: 5.67 ± 0.41 h
total protein half-life in vivo [3]: 5.9 ± 0.36 h
total protein half-life in vivo [5]: 5.611 ± 0.039 h
total protein half-life in vivo [6]: 3.22 ± 0.093 h
total protein half-life in vivo [7]: 5.58 ± 0.078 h
total protein half-life in vivo [8]: 10.7 ± 0.51 h
total protein half-life in vivo [9]: 5.79 ± 0.092 h
total protein half-life in vivo [10]: 11.95 ± 0.045 h
total protein half-life in vivo [11]: 5.88 ± 0.55 h
total protein half-life in vivo [12]: 10.9 ± 0.86 h

MNKETQPIDRETLLKEANKIIREHEDTLAGIEATGVTQRNGVLVFTGDYFLDEQGLPTAKSTAVFNMFKHLAHVLSEKYHLVD [P0AB61]
total protein half-life in vivo [1]: 5.24 ± 0.27 h
total protein half-life in vivo [2]: 3.59 h
total protein half-life in vivo [3]: 3.12 ± 0.036 h
total protein half-life in vivo [4]: 3.65 ± 0.14 h
total protein half-life in vivo [5]: 2.91 ± 0.23 h
total protein half-life in vivo [6]: 2.64 h
total protein half-life in vivo [7]: 4.89 ± 0.3 h
total protein half-life in vivo [8]: 9.62 ± 3.9 h
total protein half-life in vivo [9]: 2.5 ± 0.063 h
total protein half-life in vivo [10]: 4.72 h
total protein half-life in vivo [11]: 6.02 h

MNKFEDIRGVAFDLDGTLVDSAPGLAAAVDMALYALELPVAGEERVITWIGNGADVLMERALTWARQERATQRKTMGKPPVDDDIPAEEQVRILRKLFDRYYGEVAEEGTFLFPHVADTLGALQAKGLPLGLVTNKPTPFVAPLLEALDIAKYFSVVIGGDDVQNKKPHPDPLLLVAERMGIAPQQMLFVGDSRNDIQAAKAAGCPSVGLTYGYNYGEAIDLSQPDVIYQSINDLLPALGLPHSENQESKND
total protein half-life in vivo [1]: 3.53 ± 0.37 h
total protein half-life in vivo [2]: 3.12 ± 0.096 h
total protein half-life in vivo [3]: 2.83 h
total protein half-life in vivo [4]: 4.24 ± 1.1 h
total protein half-life in vivo [5]: 3.05 ± 0.14 h
total protein half-life in vivo [6]: 3.21 ± 0.34 h
total protein half-life in vivo [7]: 5.56 ± 0.92 h
total protein half-life in vivo [8]: 8.69 ± 0.53 h
total protein half-life in vivo [9]: 2.87 ± 0.17 h
total protein half-life in vivo [10]: 4.01 ± 0.23 h
total protein half-life in vivo [11]: 4.14 ± 1 h
total protein half-life in vivo [12]: 10.5 ± 1.2 h

MNKIFSSHVMPFRALIDACWKEKYTAARFTRDLIAGITVGIIAIPLAMALAIGSGVAPQYGLYTAAVAGIVIALTGGSRFSVSGPTAAFVVILYPVSQQFGLAGLLVATLLSGIFLILMGLARFGRLIEYIPVSVTLGFTSGIGITIGTMQIKDFLGLQMAHVPEHYLQKVGALFMALPTINVGDAAIGIVTLGILVFWPRLGIRLPGHLPALLAGCAVMGIVNLLGGHVATIGSQFHYVLADGSQGNGIPQLLPQLVLPWDLPNSEFTLTWDSIRTLLPAAFSMAMLGAIESLLCAVVLDGMTGTKHKANSELVGQGLGNIIAPFFGGITATAAIARSAANVRAGATSPISAVIHSILVILALLVLAPLLSWLPLSAMAALLLMVAWNMSEAHKVVDLLRHAPKDDIIVMLLCMSLTVLFDMVIAISVGIVLASLLFMRRIARMTRLAPVVVDVPDDVLVLRVIGPLFFAAAEGLFTDLESRLEGKRIVILKWDAVPVLDAGGLDAFQRFVKRLPEGCELRVCNVEFQPLRTMARAGIQPIPGRLAFFPNRRAAMADL [P0AFR2]
total protein half-life in vivo [1]: 5.99 ± 0.062 h
total protein half-life in vivo [2]: 6.21 ± 0.72 h
total protein half-life in vivo [3]: 5.51 h
total protein half-life in vivo [4]: 5.97 ± 0.73 h
total protein half-life in vivo [5]: 5.82 ± 0.46 h
total protein half-life in vivo [6]: 1.95 h
total protein half-life in vivo [7]: 6.39 ± 0.93 h
total protein half-life in vivo [8]: > 16 h
total protein half-life in vivo [9]: 6.43 ± 1.8 h
total protein half-life in vivo [10]: > 16 h
total protein half-life in vivo [12]: 7.77 h
